A short description of this data set: self-splicing fitness, log relative to wild type (ln ratio); higher = more splicing; Tetrahymena group I intron in knt gene, E. coli kanamycin selection, DiMSum; sequences stand for … in CUCUCU…GGAGGGAAAAGUUAUCAGGCAUGCACCUGGUAGCUAGUCUUUAAACCAAUAGAUUGCAUCGGUUUAAAAGGCAAGACCGUCAAAUUGCGGGAAAGGGGUCAACAGCCGUUCAGUACCAAGUCUCAGGGGAAACUUUGAGAUGGCCUUGCAAAGGGUAUGGUAAUAAGCUGACGGACAUGGUCCUAACCACGCAGCCAAGUCCUAAGUCAACAGAUCUUCUGUUGAUAUGGAUGCAGUUCACAGACUAAAUGUCGGUCGGGGAAGAUGUAUUCUUCUCAUAAGAUAUAGUCGGACCUCUCCUUAAUGGGAGCUAGCGGAUGAAGUGAUGCAACACUGGAGCCGCUGGGAACUAAUUUGUAUGCGAAAGUAUAUUGAUUAGUUUUGGAGUACUCGUGGUCG
The essentials: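 DiMSum derived fitness as the error-weighted combination of fold changes across replicates, kanamycin versus no kanamycin, normalised to wild type. E. coli BL21(DE3) held the library, which randomised all eight P1ex-region intron nucleotides within the knt kanamycin-resistance gene on pET-22b(+). Six replicate transformations grew overnight at 37°C or 30°C on LB agar with or without 25 μg/mL kanamycin, also containing 100 μg/mL carbenicillin, 50 μM IPTG and 0.2% rhamnose, and pooled colonies were amplicon-sequenced on an Illumina HiSeq 2500.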

Results on 38 sequences are retold here after the supplement of paper PMC7877785.

± gives the uncertainty stated by the source.

With AUGCAGCAAUAUUACGAUCC, the “self-splicing fitness (ln)” value is, setting by setting: (30 °C) -1.78 ± 0.22; (37 °C) -0.259 ± 0.29. Consider GACUAGCAAUAUUACGCCGC, for which the “self-splicing fitness (ln)” value runs as follows: (30 °C) -3.31 ± 0.21; (37 °C) -1.65 ± 0.2.

As to GCGGAGCAAUAUUACGUUCA, the “self-splicing fitness (ln)” value was -0.896 ± 0.11 (30 °C) and -0.33 ± 0.096 (37 °C). The corresponding values for UAGAAGCAAUAUUACGACAG are -0.764 ± 0.12 and -0.152 ± 0.14. Consider CAUAAGCAAUAUUACGUUCU, for which the “self-splicing fitness (ln)” value is -3.28 ± 0.23 (30 °C) and -3.1 ± 0.3 (37 °C). For GUACAGCAAUAUUACGGGGG, the “self-splicing fitness (ln)” value is, setting by setting: (30 °C) -3.36 ± 0.12; (37 °C) -3.03 ± 0.15.

On to UACAAGCAAUAUUACGUCAA, for which the “self-splicing fitness (ln)” value (30 °C) is -3.18 ± 0.2 and the “self-splicing fitness (ln)” value (37 °C) was -1.67 ± 0.13. The matching figures for GGGUAGCAAUAUUACGGCGA: -0.516 ± 0.1 and 0.326 ± 0.12. For UUGGAGCAAUAUUACGUAUA, the “self-splicing fitness (ln)” value (30 °C) is -2.08 ± 0.44. For UGUUAGCAAUAUUACGUUGU, the “self-splicing fitness (ln)” value is -3.71 ± 0.28 (30 °C) and -2.3 ± 0.17 (37 °C). For CAGGAGCAAUAUUACGAUGA, the “self-splicing fitness (ln)” value (30 °C) is -1.76 ± 0.41. For the sequence AGGGAGCAAUAUUACGACAU, the “self-splicing fitness (ln)” value is -2.607 ± 0.025 (30 °C) and -2.17 ± 0.041 (37 °C). AUUCAGCAAUAUUACGGAAU: the “self-splicing fitness (ln)” value (30 °C) is -2.86 ± 0.14 and the “self-splicing fitness (ln)” value (37 °C) was -2.61 ± 0.23. The matching figures for GCACAGCAAUAUUACGAAUA: -1.42 ± 0.13 and -1.09 ± 0.16. As for CACAAGCAAUAUUACGACGA, the “self-splicing fitness (ln)” value was -0.927 ± 0.11 (30 °C) and -0.995 ± 0.12 (37 °C). CACAAGCAAUAUUACGUACU: the “self-splicing fitness (ln)” value was -3.09 ± 0.12 (30 °C) and -0.878 ± 0.1 (37 °C). The matching figures for UGUGAGCAAUAUUACGCGGA: -2.4 ± 0.2 and -1.31 ± 0.21. The corresponding values for ACGUAGCAAUAUUACGAUUC are -2.39 ± 0.11 and -2.41 ± 0.21. In the case of AUGCAGCAAUAUUACGCAAU, the “self-splicing fitness (ln)” value is, setting by setting: (30 °C) -2.65 ± 0.12; (37 °C) -1.98 ± 0.13.

As to AAGUAGCAAUAUUACGACUG, the “self-splicing fitness (ln)” value is, setting by setting: (30 °C) 0.323 ± 0.082; (37 °C) -0.593 ± 0.11. For the sequence GGCUAGCAAUAUUACGAUAC, the “self-splicing fitness (ln)” value reads like this: (30 °C) -1.71 ± 0.16; (37 °C) -0.0528 ± 0.14. Consider UAAUAGCAAUAUUACGCGUU, for which the “self-splicing fitness (ln)” value is, setting by setting: (30 °C) -4.21 ± 0.17; (37 °C) -2.66 ± 0.15. The matching figures for CUUUAGCAAUAUUACGCAGU: -1.8 ± 0.3 and -2.34 ± 0.49. The matching figures for CCCCAGCAAUAUUACGUACU: -3.21 ± 0.22 and -2.67 ± 0.27. The corresponding values for UCGAAGCAAUAUUACGUGAC are -2.44 ± 0.19 and -2.88 ± 0.21. With GUUUAGCAAUAUUACGUCGU, the “self-splicing fitness (ln)” value (30 °C) is -0.72 ± 0.21 and the “self-splicing fitness (ln)” value (37 °C) is -0.885 ± 0.21.

On to AACGAGCAAUAUUACGGACA, for which the “self-splicing fitness (ln)” value is -2.38 ± 0.12 (30 °C) and -1.57 ± 0.11 (37 °C). The matching figures for AGCUAGCAAUAUUACGGGAG: -1.59 ± 0.13 and -2.54 ± 0.19.

Consider CACCAGCAAUAUUACGCAGU, for which the “self-splicing fitness (ln)” value (30 °C) was -3.61 ± 0.19 and the “self-splicing fitness (ln)” value (37 °C) is -2.09 ± 0.23.

For UGUUAGCAAUAUUACGACUA, the “self-splicing fitness (ln)” value was 0.407 ± 0.22 (30 °C) and -0.164 ± 0.19 (37 °C). The corresponding values for GCUCAGCAAUAUUACGGUUG are -4.11 ± 0.27 and -2.28 ± 0.24. As for UGCCAGCAAUAUUACGGCCU, the “self-splicing fitness (ln)” value (30 °C) was -0.579 ± 0.1 and the “self-splicing fitness (ln)” value (37 °C) is -0.213 ± 0.12.

For CCUCAGCAAUAUUACGCCUG, the “self-splicing fitness (ln)” value was -2.38 ± 0.081 (30 °C) and -1.72 ± 0.11 (37 °C). The matching figures for UAUUAGCAAUAUUACGAUGA: -0.641 ± 0.11 and 0.262 ± 0.13. The matching figures for UAAGAGCAAUAUUACGUUAA: -3.21 ± 0.22 and -2.3 ± 0.2.

For the sequence GUGUAGCAAUAUUACGUCUU, the “self-splicing fitness (ln)” value is 0.202 ± 0.18 (30 °C) and -0.00398 ± 0.18 (37 °C). The matching figures for GUGUAGCAAUAUUACGCGAU: -3.21 ± 0.26 and -1.96 ± 0.26. The matching figures for CGGUAGCAAUAUUACGUUGU: -4.62 ± 0.27 and -2.55 ± 0.15.
